Assay results as given in patent US20090099029.

T1: Bovine, dephosphorylated, Myelin Basic Protein (MBP), P02687
T1 chain: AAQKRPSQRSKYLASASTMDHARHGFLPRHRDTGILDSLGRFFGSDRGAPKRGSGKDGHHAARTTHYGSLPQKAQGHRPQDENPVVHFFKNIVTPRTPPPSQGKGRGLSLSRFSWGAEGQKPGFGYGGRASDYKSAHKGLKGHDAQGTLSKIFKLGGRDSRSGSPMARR

B1: PAK1 (protein)
chain: MSNNGLDIQDKPPAPPMRNTSTMIGAGSKDAGTLNHGSKPLPPNPEEKKKKDRFYRSILPGDKTNKKKEKERPEISLPSDFEHTIHVGFDAVTGEFTGMPEQWARLLQTSNITKSEQKKNPQAVLDVLEFYNSKKTSNSQKYMSFTDKSAEDYNSSNALNVKAVSETPAVPPVSEDEDDDDDDATPPPVIAPRPEHTKSVYTRSVIEPLPVTPTRDVATSPISPTENNTTPPDALTRNTEKQKKKPKMSDEEILEKLRSIVSVGDPKKKYTRFEKIGQGASGTVYTAMDVATGQEVAIKQMNLQQQPKKELIINEILVMRENKNPNIVNYLDSYLVGDELWVVMEYLAGGSLTDVVTETCMDEGQIAAVCRECLQALEFLHSNQVIHRDIKSDNILLGMDGSVKLTDFGFCAQITPEQSKRSTMVGTPYWMAPEVVTRKAYGPKVDIWSLGIMAIEMIEGEPPYLNENPLRALYLIATNGTPELQNPEKLSAIFRDFLNRCLEMDVEKRGSAKELLQHQFLKIAKPLSSLTPLIAAAKEATKNNH
B2: PAK3 (protein)
chain: MSDGLDNEEKPPAPPLRMNSNNRDSSALNHSSKPLPMAPEEKNKKARLRSIFPGGGDKTNKKKEKERPEISLPSDFEHTIHVGFDAVTGEFTGIPEQWARLLQTSNITKLEQKKNPQAVLDVLKFYDSKETVNNQKYMSFTSGDKSAHGYIAAHPSSTKTASEPPLAPPVSEEEDEEEEEEEDENEPPPVIAPRPEHTKSIYTRSVVESIASPAVPNKEVTPPSAENANSSTLYRNTDRQRKKSKMTDEEILEKLRSIVSVGDPKKKYTRFEKIGQGASGTVYTALDIATGQEVAIKQMNLQQQPKKELIINEILVMRENKNPNIVNYLDSYLVGDELWVVMEYLAGGSLTDVVTETCMDEGQIAAVCRECLQALDFLHSNQVIHRDIKSDNILLGMDGSVKLTDFGFCAQITPEQSKRSTMVGTPYWMAPEVVTRKAYGPKVDIWSLGIMAIEMVEGEPPYLNENPLRALYLIATNGTPELQNPERLSAVFRDFLNRCLEMDVDRRGSAKELLQHPFLKLAKPLSSLTPLIIAAKEAIKNSSR
B3: NEK2 (protein)
chain: MPSRAEDYEVLYTIGTGSYGRCQKIRRKSDGKILVWKELDYGSMTEAEKQMLVSEVNLLRELKHPNIVRYYDRIIDRTNTTLYIVMEYCEGGDLASVITKGTKERQYLDEEFVLRVMTQLTLALKECHRRSDGGHTVLHRDLKPANVFLDGKQNVKLGDFGLARILNHDTSFAKTFVGTPYYMSPEQMNRMSYNEKSDIWSLGCLLYELCALMPPFTAFSQKELAGKIREGKFRRIPYRYSDELNEIITRMLNLKDYHRPSVEEILENPLIADLVADEQRRNLERRGRQLGEPEKSQDSSPVLSELKLKEIQLQERERALKAREERLEQKEQELCVRERLAEDKLARAENLLKNYSLLKERKFLSLASNPELLNLPSSVIKKKVHFSGESKENIMRSENSESQLTSKSKCKDLKKRLHAAQLRAQALSDIEKNYQLKSRQILGMR
B4: NEK3 (protein)
chain: MDDYMVLRMIGEGSFGRALLVQHESSNQMFAMKEIRLPKSFSNTQNSRKEAVLLAKMKHPNIVAFKESFEAEGHLYIVMEYCDGGDLMQKIKQQKGKLFPEDMILNWFTQMCLGVNHIHKKRVLHRDIKSKNIFLTQNGKVKLGDFGSARLLSNPMAFACTYVGTPYYVPPEIWENLPYNNKSDIWSLGCILYELCTLKHPFQANSWKNLILKVCQGCISPLPSHYSYELQFLVKQMFKRNPSHRPSATTLLSRGIVARLVQKCLPPEIIMEYGEEVLEEIKNSKHNTPRKKTNPSRIRIALGNEASTVQEEEQDRKGSHTDLESINENLVESALRRVNREEKGNKSVHLRKASSPNLHRRQWEKNVPNTALTALENASILTSSLTAEDDRGGSVIKYSKNTTRKQWLKETPDTLLNILKNADLSLAFQTYTIYRPGSEGFLKGPLSEETEASDSVDGGHDSVILDPERLEPGLDEEDTDFEEEDDNPDWVSELKKRAGWQGLCDR

Biological target: T1, Bovine, dephosphorylated, Myelin Basic …

| Protein | MBP Kinase Activity |
| --- | --- |
| B1 | Negative |
| B2 | Weak |
| B3 | Strong |
| B4 | Negative |
